“Also recorded” adds a separate entry of the source.

One test has as its system HeLa cell pairs. Description: Dual whole cell patch clamp recording of coupling current in transfected HeLa cell pairs. The test is classed as cell-based, human. The following applies: for electrical coupling: Table 6 (Example 4), HeLa cell pairs, 100 mV step, mean ± SEM; for electrical coupling / functional channels in HeLa cell pairs (in words): transfected HeLa cell pairs, voltage step protocol −100 to +100 mV. The procedure: Coupling currents were recorded using simultaneous double whole-cell patch clamp recordings from isolated pairs of cells that were in contact with one another (determined visually) as previously described. Briefly, the pipette solution consisted of (mM): 130 CsCl, 10 EGTA, 10 HEPES, 3 Mg-ATP, 2 Na-ATP, 0.5 CaCl2, pH 7.3. The culture was bathed in a solution consisting of (mM): 140 NaCl, 5 HEPES, 5 glucose, 4 KCl, 2 CsCl, 2 CaCl2, 2 pyruvate, 1 BaCl2, pH 7.3. Transfected HeLas undergo electrophysiologic analysis in a blinded manner. Pairs of cells were chosen for study only if both expressed the GFP marker indicative of successful transfections; both stable and transient transfectants were analyzed. Patch pipettes were fabricated from borosilicate glass, and coupling currents were amplified by Axopatch 200A amplifiers, filtered at 1 KHz, and digitized at 5 KHz for subsequent analysis using pClamp software (Axon Instruments/Molecular Devices; Sunnyvale, Calif.). All experiments were carried out at room temperature (22° C.). Coupling current was quantified by measuring the peak current recorded in the pair when the neighboring cell received a 100 mV step membrane potential change (in both positive and negative directions). Step changes in membrane potential were delivered to each cell in the pair in sequence and the average current recorded in the neighboring cell was determined and divided by 100 to generate coupling current expressed in pA/mV. Means±SEM were calculated and statistical significance using a one-way analysis of variance and Tukey's post-hoc test, p<0.05.
Coupling current is quantified by measuring the peak current recorded in the pair when the neighboring cell receives a 100 mV step membrane potential change (in both positive and negative directions). Step changes in membrane potential are delivered to each cell in the pair in sequence and the average current recorded in the neighboring cell determined and divided by 100 to generate coupling current expressed in pA/mV (FIG. 6C). Replicate measurements (n=3-6) are made on at least two different days. […] The untransfected HeLa cell pairs also show minimal channel function, as predicted.
Electrophysiologic characteristics of GJIC were measured between HeLa cell pairs transfected with the mutant constructs (as indicated by EGFP expression) by dual whole cell patch clamp recording. All experiments were carried out in a blinded manner. Coupling current is quantified by measuring the peak current recorded in the pair when the neighboring cell receives a 100 mV step membrane potential change (in both positive and negative directions). Step changes in membrane potential are delivered to each cell in the pair in sequence and the average current recorded in the neighboring cell determined and divided by 100 to generate coupling current expressed in pA/mV. Untransfected HeLa cells and cells transfected with empty vector (i.e., no hCx47) were used as additional controls.

Test [1] deals with HeLa cells. Description: Wound assay (proliferation/migration) in confluent transfected HeLa cells. In kind it is cell-based, human. The note with it: fraction of original wound in HeLa cell monolayer after 24 hrs; mean ± SEM. The procedure:
The wound assay, a measure of proliferation/migration, was performed using differential interference contrast time lapse of over 24 hrs using confluent transfected HeLa cells. Analysis was done using TScratch (Geback T, et al. TScratch: a novel and simple software tool for automated analysis of monolayer wound healing assays. Biotechniques 2009; 46:265-74), mean±SEM of at least 10 positions along wound; the scrape width was normalized to the first image for each position. In all cases a two tailed student's T test was applied with p<0.05 considered significant.

For test [2], the system named is HeLa cells. Description: Cx47 gap junction plaque formation by immunofluorescent confocal microscopy in transfected HeLa cells. The test is classed as cell-based, human. The following applies: near confluent transfected HeLa cells. The procedure:
Human neonatal foreskin was collected anonymously as discarded tissue according to an IRB protocol. Samples were collected immediately after harvest in DMEM, then fixed in 2% paraformaldehyde for 2 hrs, then stored in 30% sucrose in 1×PBS overnight for cryosectioning, and sectioned in 6 μm slices at −30° C. Transfected (stable and transient) and untransfected HeLa cells were grown to near confluence in coverslip bottom dishes. All cells were rinsed with PBS and fixed with 2% paraformaldehyde. Subsequently, tissue and HeLa cells were processed similarly: following permeabilization with 0.1% Triton X, cells were blocked with 2% BSA. A human Cx47 antibody (ab) was obtained from the S. Scherer laboratory: polyclonal rabbit against amino acids 344-399 in the cytoplasmic C-terminal tail; we used human CNS tissue and positive oligodendrocyte staining as a positive control and primary antibody delete and rabbit IgG as negative controls (data not shown). Cx47 ab was diluted in 0.5% BSA in a 1:200 ratio, applied to cells and incubated at RT for one hour. Mouse monoclonal Proxl (Chemicon) was used as a lymphatic marker for the foreskin samples. Cells were incubated with the secondary abs (Donkey Anti-Rabbit Cy5 and Donkey Anti-Mouse Cy3; Invitrogen) for one hour at RT and washed; Draq5 was used as a nuclear marker. HeLa images were acquired with an inverted Olympus Fluoview 1000 Confocal Microscope 100× oil, 1.4 NA objective. Foreskin images were acquired on a Zeiss Meta LSM 510 inverted confocal microscope with 40× oil, 1.3 N.A. objective. LECs (primary human microvascular adult dermal lymphatics; Lonza) were grown in fibronectin coated coverslip bottom MatTeks dishes in EGM™-2 MV—Microvascular Endothelial Cell Medium-2 (Lonza Inc.) to approximately 80% confluence, and prepared similarly but a commercially available (AbCam) Cx47 ab, polyclonal rabbit against amino acids 41-70 in the human sequence was used along with Drag 5 nuclear marker and phalloidin to mark f-actin.
Immunofluorescence microscopy determines the presence or absence of Cx47 gap junction plaques when the constructs are transiently expressed in HeLa cells. Cx plaques reflect a physiologic accumulation of Cx channels in the cell membrane between cells (tens to thousands of channels); thus plaques are indicative of normal trafficking and gap junction formation at the cell membrane.
Immunofluorescence microscopy determines the presence or absence of Cx47 gap junction plaques when the constructs are transiently expressed in HeLa cells. A human Cx47 antibody was obtained: polyclonal rabbit against amino acids 344-399 in the cytoplasmic C-terminal tail (Orthmann-Murphy J L, et al. Mol Cell Neurosci 2007; 34:629-41); we used human CNS tissue and positive oligodendrocyte staining as a positive control and primary antibody delete as a negative control (data not shown). Cultured HeLa cells were routinely fixed and stained with the primary antibodies against Cx47, along with a nuclear marker, and transfected cells were identified by their EGFP signal. Plaques were imaged using an Olympus Fluoview 1000 confocal microscope, 100× oil objective.

Test [3] deals with Adult human dermal lymphatic microvascular endothelial cells. Kind of test: Lucifer yellow microinjection dye spread in lymphatic endothelial cells expressing mutant constructs. In kind it is cell-based. The note with it: for LEC spread: Dye spread to tiers of LECs after 2 min, Lucifer yellow microinjection, mean ± SEM; for dye transfer of Lucifer yellow after microinjection compared to WT-hCx47-EGFP expressing LECs (in words): LECs expressing the mutations. The procedure:
Adult human dermal lymphatic microvascular endothelial cells were cultured in EGM™-2 MV (both from Lonza). Cells were electroporated with 2 μg cDNA of the EGFP tagged mutant constructs and then selected with G418 as described above. Cells were microinjected using a combination (1:4 ratio) of 70 kd Texas Red dextran (Invitrogen) to mark injected cell for reference and Lucifer yellow, a known gap junction permeable dye (m.w. 443, −2 charge), to assess change in extent of spread (Abbaci M, et al. Advantages and limitations of commonly used methods to assay the molecular permeability of gap junctional intercellular communication. Biotechniques 2008; 45:33-52, 6-62). All cells were injected using constant conditions and cells were scored for dye spread in tiers from reference cell, using constant exposure time and thresholding, and were imaged using a Nikon TE2000 with temperature controlled motorized stage and Qlmaging Retiga CCD camera. Images were obtained using differential interference contrast (DIC) and standard filters for EGFP (identify expression of mutation), DAPI (for Lucifer yellow) and dsRed (for dextran) preinjection, immediately post-injection and 2 min after injection. Results were calculated as mean SEM and statistical significance was determined in comparison to WT-hCx47-EGFP expressing cells using a Mann-Whitney Test.

B1: G183C: Cx47 missense mutant G183C (547G>T), intracellular loop, construct expressed in HeLa cells (protein, listed as Homo sapiens)
chain: MSWSFLTRLLEEIHNHSTFVGKVWLTVLVVFRIVLTAVGGEAIYSDEQAKFTCNTRQPGCDNVCYDAFAPLSHVRFWVFQIVVISTPSVMYLGYAVHRLARASEQERRRALRRRPGPRRAPRAHLPPPHAGWPEPADLGEEEPMLGLGEEEEEEETGAAEGAGEEAEEAGAEEACTKAVGADCKAAGTPGPTGQHDGRRRIQREGLMRVYVAQLVARAAFEVAFLVGQYLLYGFEVRPFFPCSRQPCPHVVDCFVSRPTEKTVFLLVMYVVSCLCLLLNLCEMAHLGLGSAQDAVRGRRGPPASAPAPAPRPPPCAFPAAAAGLACPPDYSLVVRAAERARAHDQNLANLALQALRDGAAAGDRDRDSSPCVGLPAASRGPPRAGAPASRTGSATSAGTVGEQGRPGTHERPGAKPRAGSEKGSASSRDGKTTVWI
In the case of B1, in the test on HeLa cell pairs, the electrical coupling was found to be 68.6 pA/mV and the “electrical coupling / functional channels in HeLa cell pairs (in words)” value is reported as “increased electrical coupling; also recorded: increased peak coupling currents”. Moreover, the wound assay in the test with HeLa cells [1] amounted to 0.68. In addition, the “Cx47 plaque formation (in words)” value in the test on HeLa cells [2] is given as “Cx47 intercellular plaques”.

B2: P381S: Cx47 missense mutant P381S (1141C>T), C terminal, construct expressed in HeLa cells or LECs (protein, listed as Homo sapiens)
chain: MSWSFLTRLLEEIHNHSTFVGKVWLTVLVVFRIVLTAVGGEAIYSDEQAKFTCNTRQPGCDNVCYDAFAPLSHVRFWVFQIVVISTPSVMYLGYAVHRLARASEQERRRALRRRPGPRRAPRAHLPPPHAGWPEPADLGEEEPMLGLGEEEEEEETGAAEGAGEEAEEAGAEEACTKAVGADGKAAGTPGPTGQHDGRRRIQREGLMRVYVAQLVARAAFEVAFLVGQYLLYGFEVRPFFPCSRQPCPHVVDCFVSRPTEKTVFLLVMYVVSCLCLLLNLCEMAHLGLGSAQDAVRGRRGPPASAPAPAPRPPPCAFPAAAAGLACPPDYSLVVRAAERARAHDQNLANLALQALRDGAAAGDRDRDSSPCVGLPAASRGSPRAGAPASRTGSATSAGTVGEQGRPGTHERPGAKPRAGSEKGSASSRDGKTTVWI
As to B2, in the test on HeLa cell pairs, the electrical coupling is recorded as 48.2 pA/mV and the “electrical coupling / functional channels in HeLa cell pairs (in words)” value is “well coupled”. The wound assay in the test on HeLa cells [1] is recorded as 0.70. In test [3], the LEC spread is 2.26 tiers and the “dye transfer of Lucifer yellow after microinjection compared to WT-hCx47-EGFP expressing LECs (in words)” value was “significantly enhanced dye transfer”. Moreover, the “Cx47 plaque formation (in words)” value in the test on HeLa cells [2] was “Cx47 intercellular plaques”.

B3: H409Y: Cx47 missense mutant H409Y (1225C>T), C terminal, construct expressed in HeLa cells or LECs (protein, listed as Homo sapiens)
chain: MSWSFLTRLLEEIHNHSTFVGKVWLTVLVVFRIVLTAVGGEAIYSDEQAKFTCNTRQPGCDNVCYDAFAPLSHVRFWVFQIVVISTPSVMYLGYAVHRLARASEQERRRALRRRPGPRRAPRAHLPPPHAGWPEPADLGEEEPMLGLGEEEEEEETGAAEGAGEEAEEAGAEEACTKAVGADGKAAGTPGPTGQHDGRRRIQREGLMRVYVAQLVARAAFEVAFLVGQYLLYGFEVRPFFPCSRQPCPHVVDCFVSRPTEKTVFLLVMYVVSCLCLLLNLCEMAHLGLGSAQDAVRGRRGPPASAPAPAPRPPPCAFPAAAAGLACPPDYSLVVRAAERARAHDQNLANLALQALRDGAAAGDRDRDSSPCVGLPAASRGPPRAGAPASRTGSATSAGTVGEQGRPGTYERPGAKPRAGSEKGSASSRDGKTTVWI
For B3, in the test on HeLa cell pairs, the electrical coupling was 46.4 pA/mV and the “electrical coupling / functional channels in HeLa cell pairs (in words)” value is given as “well coupled”. The same molecule had a wound assay in the test with HeLa cells [1] of 0.73. Besides, in test [3], the LEC spread is 0.07 tiers and the “dye transfer of Lucifer yellow after microinjection compared to WT-hCx47-EGFP expressing LECs (in words)” value is on record as “dramatically impaired dye transfer”. Besides, the “Cx47 plaque formation (in words)” value in the test with HeLa cells [2] was “Cx47 intercellular plaques”.

The values are drawn from patent publication US9260754B2, “Connexin mutation detection for lymphatic variation and disease” (University of Pittsburgh—Of the Commonwealth System of …, priority 2010, dated 2016).
